The source of these data is patent publication US20240336672A1.

Details in all cases: remark: other sources report otherwise
The target of experiment [1] is SARS-CoV-2 RBD (B.1.351) domain (SARS-CoV-2). As to the kind of experiment: ELISA. (ELISA stands for enzyme-linked immunosorbent assay.)
Experiment [2] has the same target. As to the kind of experiment: ELISA; unit from paragraph 452, none printed in the heatmap.
In experiment [3] the target is T1, SARS-CoV-2 Spike ectodomain (tri-S), Wuhan (SARS-CoV-2), P0DTC2. In words: tri-S/ACE2 blocking ELISA.
Experiment [4] has as its target SARS-CoV-2 RBD (B.1.1.7) domain (SARS-CoV-2). In words: RBD/ACE2 blocking ELISA.
Experiment [5] deals with SARS-CoV-2 RBD (P.1) domain (SARS-CoV-2). As to the kind of experiment: RBD/ACE2 blocking ELISA.
Experiment [6] deals with SARS-CoV-2 RBD (B.1.351) domain (SARS-CoV-2). In words: RBD/ACE2 blocking ELISA.
Experiment [7] has as its target SARS-CoV-2 RBD (B.1.1.7) domain (SARS-CoV-2). As to the kind of experiment: ELISA. On the set-up: unit not given beside the values.
The target in experiment [8] is SARS-CoV-2 RBD (P.1) domain (SARS-CoV-2). As to the kind of experiment: ELISA. On the set-up: unit not given beside the values.
The target of experiment [9] is SARS-CoV-2 RBD (B.1.351) domain (SARS-CoV-2). In words: ELISA. On the set-up: unit not given beside the values.
The target of experiment [10] is T1, SARS-CoV-2 Spike ectodomain (tri-S), …. As to the kind of experiment: ELISA. On the set-up: unit not given beside the values.
Experiment [11] has the same target. As to the kind of experiment: tri-S-ACE2 competition ELISA; unit from legend paragraph 348.
Experiment [12] deals with SARS-CoV-2 RBD (B.1.1.7) domain (SARS-CoV-2). In words: ELISA.
Experiment [13] deals with SARS-CoV-2 RBD (P.1) domain (SARS-CoV-2). As to the kind of experiment: ELISA.
Experiment [14] deals with T1, SARS-CoV-2 Spike ectodomain (tri-S), …. As to the kind of experiment: ELISA.

B1: Cilgavimab (antibody, V domains shown)
VH: EVQLVESGGGLVKPGGSLRLSCAASGFTFRDVWMSWVRQAPGKGLEWVGRIKSKIDGGTTDYAAPVKGRFTISRDDSKNTLYLQMNSLKTEDTAVYYCTTAGSYYYDTVGPGLPEGKFDYWGQGTLVTVSS
VL: not shown
For B1, in experiment [1], the OD405nm amounted to 3.3. This molecule returned an EC50 in [2] of 7 ng/mL.

B2: ADG-2 (antibody, V domains shown)
VH: EVQLVESGGGLVKPGGSLRLSCAASGFTFSSYYMNWVRQAPGKGLEWVSSISEDGYSTYYPDSLKGRFTISRDSAKNSLYLQMNSLRADDTAVYYCARDFSGHTAWAGTGFEYWGQGTLVTVSS
VL: QSVLTQPPSVSGAPGQRITISCTGSSSNIGAGYDVHWYQQLPGTAPKLLIYGSSSRNSGVPDRFSGSKSGTSASLAITGLQAEDEADYYCQSYDSSLSVLYTFGTGTKVTVL
Turning to B2, the % binding inhibition amounted to 96% in experiment [3], 92% in experiment [4], 89% in experiment [5] and 95% in experiment [6]. In addition, the AUC in [7], in [8], in experiment [9] and in experiment [10] was 3 throughout.

B3: Adintrevimab (antibody, V domains shown)
VH: EVQLVESGGGLVKPGGSLRLSCAASGFTFSSYYMNWVRQAPGKGLEWVSSISEDGYSTYYPDSLKGRFTISRDSAKNSLYLQMNSLRADDTAVYYCARDFSGHTAWAGTGFEYWGQGTLVTVSS
VL: QSVLTQPPSVSGAPGQRITISCTGSSSNIGAGYDVHWYQQLPGTAPKLLIYGSSSRNSGVPDRFSGSKSGTSASLAITGLQAEDEADYYCQSYDSSLSVLYTFGTGTKVTVL
As for B3, the IC50 in experiment [11] amounted to 200 ng/mL. Also, the OD405nm stood at 3.4 in [12], 3.4 in [13], 3.4 in experiment [1] and 3 in experiment [14]. The EC50 in experiment [2] is 7 ng/mL.

As a reminder, the EC50 is the midpoint of the concentration-response curve. What is called IC50 is the concentration that inhibits the measured activity by half.
